Experimental findings from paper PMC5240623, “Methylation specific targeting of a chromatin remodeling complex from sponges to humans” are described below.

For data set [1], the target named is T1, HsMBD2 MBD (Homo sapiens, UniProt Q9UBB5 150-214). Briefly: SPR; steady state; Rmax 0.93; SPR: 10 mM HEPES pH 7.4, 50 mM NaCl, 3 mM MgCl2, 0.1 mM EDTA, 1 mM DTT, 0.05% polysorbate 20, temperature not stated; NMR conditions not in material. Conditions: protein: recombinant; blunt.
For data set [2], the target named is T1, HsMBD2 MBD. Description: SPR; steady state; Rmax 6.0; SPR: 10 mM HEPES pH 7.4, 50 mM NaCl, 3 mM MgCl2, 0.1 mM EDTA, 1 mM DTT, 0.05% polysorbate 20, temperature not stated; NMR conditions not in material. Conditions: protein: recombinant; blunt.

T1 sequence (Q9UBB5 150-214): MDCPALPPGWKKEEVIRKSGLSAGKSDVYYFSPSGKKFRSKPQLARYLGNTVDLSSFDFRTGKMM

B1: mCpG 17 bp, 3'-biotin (dsDNA)
DNA 1: GAGGCGCTCGGCGGCAG
DNA 2: CTGCCGCCGAGCGCCTC
modifications: 5-methyl-C at C9 of strand 1 and C8 of strand 2 (central CpG); two other CpGs unmethylated
Take B1: the dissociation constant Kd in the data set with HsMBD2 MBD [1] was determined as 0.33 µM.

B2: CpG(x3) 17 bp, 3'-biotin (dsDNA)
DNA 1: GAGGCGCTCGGCGGCAG
DNA 2: CTGCCGCCGAGCGCCTC
As to B2, the Kd in the data set with HsMBD2 MBD [2] is 81.7 µM.
